This experiment addresses T1, His6-PRMT5 (UniProt O14744 1-637).
T1 construct: PRMT5, cDNA AF167572.1 in pReceiver-B01 (GeneCopoeia EX-V1247-B01); also called protein arginine N-methyltransferase 5; source: E. coli BL21, purified (Ni-beads)
In words: pull-down; GST-CRN5 on glutathione-sepharose beads as bait; TEV-cleaved MAPK14 or purified His6-PRMT5 as prey; 50 mM Tris/HCl pH 8.0, 150 mM NaCl, 0.5 % NP-40; three washes; SDS-PAGE and immunoblot. To be noted: both partners purified.

T1 sequence (O14744 whole entry): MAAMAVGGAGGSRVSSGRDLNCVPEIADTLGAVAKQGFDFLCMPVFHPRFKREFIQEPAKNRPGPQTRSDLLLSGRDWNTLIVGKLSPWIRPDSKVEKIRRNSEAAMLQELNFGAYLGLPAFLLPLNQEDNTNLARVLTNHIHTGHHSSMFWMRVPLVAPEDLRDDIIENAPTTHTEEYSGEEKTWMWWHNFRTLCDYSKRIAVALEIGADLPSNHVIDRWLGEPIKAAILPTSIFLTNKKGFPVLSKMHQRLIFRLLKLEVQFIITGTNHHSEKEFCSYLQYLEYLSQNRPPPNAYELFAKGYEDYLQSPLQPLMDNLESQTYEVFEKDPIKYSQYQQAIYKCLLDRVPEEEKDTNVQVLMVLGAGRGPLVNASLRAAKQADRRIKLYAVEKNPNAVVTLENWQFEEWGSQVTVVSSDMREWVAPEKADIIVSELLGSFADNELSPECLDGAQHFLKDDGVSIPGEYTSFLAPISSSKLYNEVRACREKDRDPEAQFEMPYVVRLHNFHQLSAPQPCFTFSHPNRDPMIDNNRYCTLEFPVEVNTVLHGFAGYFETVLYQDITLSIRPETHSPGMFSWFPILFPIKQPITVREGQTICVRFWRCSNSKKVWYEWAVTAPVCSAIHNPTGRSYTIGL

B1: GST-CRN5 (coronin 2A) (natural protein, human, UniProt Q92828 1-525, looked up)
chain: MSWHPQYRSSKFRHVFGKPASKENCYDSVPITRSVHDNHFCAVNPHFIAVVTECAGGGAFLVIPLHQTGKLDPHYPKVCGHRGNVLDVKWNPFDDFEIASCSEDATIKIWSIPKQLLTRNLTAYRKELVGHARRVGLVEWHPTAANILFSAGYDYKVMIWNLDTKESVITSPMSTISCHQDVILSMSFNTNGSLLATTCKDRKIRVIDPRAGTVLQEASYKGHRASKVLFLGNLKKLMSTGTSRWNNRQVALWDQDNLSVPLMEEDLDGSSGVLFPFYDADTSMLYVVGKGDGNIRYYEVSADKPHLSYLTEYRSYNPQKGIGVMPKRGLDVSSCEIFRFYKLITTKSLIEPISMIVPRRSESYQEDIYPPTAGAQPSLTAQEWLSGMNRDPILVSLRPGSELLRPHPLPAERPIFNSMAPASPRLLNQTEKLAAEDGWRSSSLLEEKMPRWAAEHRLEEKKTWLTNGFDVFECPPPKTENELLQMFYRQQEEIRRLRELLTQREVQAKQLELEIKNLRMGSEQL
notes: coronin 2A (CRN5), human cDNA NM_052820 (origene SC109892) cloned into pGEX-4T-1; pGEX-4T-1 normally places GST at the N-terminus (surmised); also called coronin 4; ClipinB; source: E. coli BL21, purified on glutathione beads (pull-down); E. coli lysate captured on CRN5 mAb K77-578-1 / Protein G microbeads (co-immunoprecipitation)
With B1, the binding result is “binds”.

For the origin of these results see paper PMC4612562, “Coronin 2A (CRN5) expression is associated with colorectal adenoma-adenocarcinoma sequence and oncogenic signalling” (BMC Cancer, 2015).
